Measurements published in the DeepSol protein solubility set.

Assay: soluble on expression in E. coli; label from the status in PepcDB or PDB records

| Sequence | soluble on expression in E. coli |
| --- | --- |
| MGSDKIHHHHHHLCRKDASQPSMYDLHRLGWNSFQQLCLTIAREVLAQSVKSFLDSNDGGRDGAFCGTWTPTKNETMSGSFVIQCKFTSKPNALLAKEDIAAELPKIRRLTEKGLCDVYVLMTNAGVSGKQEERIAAELTSAGAKNVLILGGTWITDQIRENTRLRTLVPRVYGLGDLSQILDERAYEQARAVLDSLREDLAKVVMTSAYRNAVDALDRHGFVLLIGEPAAGKTTIASMLAMASADKWKSSVLRKR | not soluble |
| MGSDKIHHHHHHMQSKSDIQRLLTIMERLRDPQTGCPWDKAQSYQTIVPFTLEEAFEVADTIERGALDELPGELGDLLFQVIFYCQLGKEQGRFDFDQVVEKICTKLTERHPHVFGEMTQASSESVRETWESIKAKERKGRSLHSVLDDIPRSLPALTRAAKVQRRVATVGFDWNDLGPVVAKIHEEIDEVMVEVAAQDRDKMEDELGDLLFAVVNLARHLKLDPEQALRRATNKFEHRFRGVEALAAQSGKAMQEHSLTELDAYWEQVKRNDPLKG | not soluble |
| MAVQFEFYKNPVQGEEEGETSYHPRVVNFQHVTTQRLAVEIHSATTFGKAEVEAMLMELSRCMGNHLREGQRVHLDGVGYFQITLQATEPIHSMAAHADKVKFKSVSFLADRDLKGELIGMHAQRSKYKPHSATLSQEEIDKKLTGYFATHTVLTRSDMQSLCQFTHSMAARHIRRLKEEGSLQNIGIRTQPIYVPCPGHYGK | not soluble |
| GPGSMCVCASDCVTPMKRDTKGKLSYDMEPAEHRLSSSRSSSCNVVMTAADELAMQINDCRSLFPCIDAGSAVASIRPTSPSGRTVVARVPWTKSTGTTQTPAPEPTRCAVEVRFGYAEGFVCDEKVYEALLPLLLENGLQGAACVVDSDVSDS | not soluble |
| GTVSATSPNKCKRPMNAFMLFAKKYRVEYTQMYPGKDNRAISVILGDRWKKMKNEERRMYTLEAKALAEEQKRLNPDCWK | soluble |
| AHHHHHHGSEKALILAEGRYKTTDGKTAHGLVRYSKRFEIVGVIDSTLAGRDAGEILDGIYRGIPIYGSLEEALAEHPDVKYLIIGVATPGGYLPPLYREIIKKAIKKRINIVNGLHNFLSDDPEFSRLAKRYKVQLIDVRKMYRDLKIPFTGKIKEVRAIKIAVLGTDAAIGKRTTAIMLHEAFERFGKKSVFVAMGQTGWMQGAKYCIVMDSIINDFVVGAIEDVIWRAWKEENPDVIVTHGEGSLLHPAYPGGFELIAAGRPDYIILQHAPARKFFDDFPQYEIPPLEKYIQLIELLSGKKPIAITINSEGLTKEEALQKAREIEETYGILTRVPLYEGVDDIVKAILEEVERIKVTVPQEGAVNASQVL | not soluble |
| MSLDAHNFFKAGPYAPLAARMRPQSLDEVVGQRHLLDSGKPLQRLIAGSGDASVILYGPPGTGKTTIASLISAGTGHEFVGLSALNSGVKEIREVIDQARRNLIHGKRTVLFIDEVHRFSKTQQDALLAAVENRTVLLVAATTENPSFSVVAPLLSRSLILQLKPLTHDDIKTVLLHALQDKRGLDNRITISDEALEQLVLLSGGDARRSLTYLEAASESLADGEELTPEIIRHNVDKAIVRYDRDGDQHYDVVSAFIKSMRGSDVDAALHYLARMIDAGEDPRFIARRLVIHASEDVGMADPQALSVAVAASQAVALIGMPEARINLAQATIHLATAPKSNAVITAIDAALADVKQGKTGPVPAHLRDGHYAGAKQLGNAVGYKYPHDDPRGIVEQQYIPNGLEDVVYYRPSEHGAEQRIESYLGKLRRIVRGQREGHHHHHH | soluble |
| MSLKLVENLALKYYDKVVDLRHQIHMHPELEFEEENTAHLVCKILDEFGIKYQKNIAKTGILAIIEGKKKSQKKPKCVLLRADMDALPVQEKTNLSYASKIDGKMHACGHDGHTAGLLGAALILNELKDEFCGTIKFMFQPAEEGSGGAKPMIESGVLENPYVDAVFGCHLWGPLLENTAQIVSGEMMAGTDIFDLEFIGRGGHGAHPHTCIDPIIMTTQFVNNIQSVISRRLAPYEAGVITVGQICAGTTYNVIPTNAYLKGTVRFLNDKTQDILKSSLEEVAAATAKSNGGDYKLKYTKEFPPLINDEKAVLIARKAFAKVLGEENIIVSSKPDMGAEDFAFLTRERMGAYVFVGISKDLNHPALHHSSTFCWDDENLKVLMQGDVMMALEFLNEGGSHHHHHH | soluble |
| KVKFTEEEDLKLQQLVMRYGAKDWIRISQLMITRNPRQCRERWNNYINPALRTDPWSPEEDMLLDQKYAEYGPKWNKISKFLKNRSDNNIRNRWMMIARHRAKHQKS | soluble |
| MKITVIVPTYRRTKDLTRCLESLEKQSRPADEVLVVVRDTDVETWQFLETIAPHSLPLHTTTVRVPGVVAAMNAGLDIAQGDIIAFTDDDAAPHSNWLAQIETHFLAHEQIAGVGGRDWVYHGDRLEDGTCPVVGQVHWFGRVIGNHHIGIGKPREVDVLKGVNMSFRRSAVHGLRFDQRMLGTGAQVHFEVAFCLALKRAGWKLIYDPQIGVNHYPAQRFLEHHHHHH | not soluble |
| MGSDKIHHHHHHLNVYHASLEEAQADPRLKGLQGASPFERLDWLALLANECLDPARARLSVVTSGECMAALPWIEREGRIDALANWYSFFVSPLGDSALLSRIVEALPHGRAAFAPLPEEDARLLARAFRNAGWCTLAAPCDVNHVLPVEGRSFAQYWAERPGALRETVRRKSRKGEVSLRILTEFSPEDWEAYETIYRLSWKPGEGSPAFLRKWAEADGEAGRLRLGIAEIDGAAVAAQFWTVEGGTAYIHKLAHDERFRKSSPGTLLTAAMFEHVIDRDRVDLIDFGTGDDPYKRDWMDDVRSRWSVQAWRPGAVRHWPSLALALARTLAGQIMRPLVSRNGDG | not soluble |
| MPSLGEAPQDLQRSQERRRIERIFAQGGKGVASPHRFPGPLPMLQNIPTHVIAGPLGAGKTSLIRHLLSQRPAAERWAVLINEFGQIGLDAALLTRDEDGIALGEVAGGCLCCVNGAPFQVGLGRLLRKARPDRLLIEPSGLGHPAQLLKQLNEAPWKGVLAVQPCVLVLDAQALAAGKPLPRAQQDALSSAGLLVLNKDELLSDSDRLRVLEQLPDLPLFWTRHAALPLAELPGLGASAEAALEQSDIPQGLAQLPAVWSDPTLPICLSQSQEDGWSIGWRWHPSQQFDLVRVEHWLQNLDWRRAKLVLHSDQGWRSGNGLDNSPLNWLPSEWRRDSRLELIFSSPQDIAVLQASLDACRLLEHHHHHH | not soluble |
| MTVTTKLIDYSDEEGNNFEGVLYIPKNVKQSKVPAVLIFPAFRGITHFEKDKGQQIAELGFVAFVADVYGKGVRPTERADAFATMGPLVSNRVEKLKPRLFAAVNTLKTFSEVDTSKIAAIGYCFGGLCVLDLARYNAGLKGVVSYHGTLKPIPDIALDPIVGTTVYVHHGDADFHIAKDQVDGFHEEMRTRQADFVFVSHANAVHAFTEPEADSFNAPGIGYNEKAAKRSWNATLDLFKEIF | not soluble |
| MSKSSYYAPHGGHPAQTELLTDRAMFTEAYAVIPKGVMRDIVTSHLPFWDNMRMWVIARPLSGFAETFSQYIVELAPNGGSDKPEQDPNAEAVLFVVEGELSLTLQGQVHAMQPGGYAFIPPGADYKVRNTTGQHTRFHWIRKHYQKVDGVPLPEAFVTNEQDIQPLVMPDTEGRWSTTRFVDMSDMRHDMHVNIVNFEPGGVIPFAETHVMEHGLYVLEGKAVYRLNQDWVEVEAGDFMWLRAFCPQACYSGGPGRFRYLLYKDVNRHMRLTLNAPHLEHHHHHH | soluble |
| MAHHHHHHMSVTIKLSNGSQKTVEVPDLNITVAKFKEIASAVTNIPADEQRVVLRGRVLKDGDVLSAMGMEHGQAVHIVRGQKSTKSDVASPSAQESASTQETQTNTNPQARPETVNPYAALAANLPASGGFSNNIPGNPNPGLQMPPELLSNMLQNPAFMQYFQEMMRNPQFLQQRMQQPQQQSQSQSPFGMNEGEMQRLLNNPMFMQLVLQMMSDPSIMQQLTQSLGGGFPASNTPLFGQQNAPAPNFAQNTGFFQPQGDPRVLYQSQLQQLREMGFTNEQANLAALEQAHGNIDFAIERLLNA | soluble |
| MGSDKIHHHHHHMPYDEILPIETLVRPKVSDFREHYLEKERPVKIARALDAWPAMQKWSLDYFENRFGDETIGVESFQPDERGPGNNSPQGYVKHLRFQELKLKELIRILRTKPDHMYYMASHPFRKSFPNLRADLAPHPYVQGHIEHIPGAHMDSYLWIGPAGTHTPIHTDPMPNFLTQIVGRKMVYLFPPDQASKNLYIGQFERETFSPVDLEKPDLERYPNYRHCTPYRAIIEPGETLHIPRNWGHCVISMDISISISTFFITYPQLFRLVPEFFTQYVKRAFEGWRWKGMENERAGLNPPPR | not soluble |
